# Data reported in publication PMC12102759.
# B1: KIAA1671 peptide 600-615 (Uncharacterized protein KIAA1671), 16-mer library wild type / MDM2 SWIB (MDM2 SWIB/MDM2 domain, residues 17-125) (parent)
# chain 1: TPEDDRSFQTVWATVF
# chain 2: SQIPASEQETLVRPKPLLLKLLKSVGAQKDTYTMKEVLFYLGQYIMTKRLYDEKQQHIVYCSNDLLGDLFGVPSFSVKEHRKIYTMIYRNLVVVNQQESSDSGTSVSEN
# B2: NYNRIN peptide 1030-1045 (Protein NYNRIN), 16-mer library wild type / NSP3 UBl1 (ORF1ab Nsp3a Ub1, residues 819-925) (parent)
# chain 1: EAPSLSEEILRALSLH
# chain 2: APTKVTFGDDTVIEVQGYKSVNITFELDERIDKVLNEKCSAYTVELGTEVNEFACVVADAVIKTLQPVSELLTPLGIDLDEWSMATYYLFDESGEFKLASHMYCSFY
# B3: PRDM14 peptide 196-211 (PR domain zinc finger protein 14), 16-mer library wild type / NSP3 SUD-M (ORF1ab Nsp3c SUD-M, residues 1356-1493) (parent)
# chain 1: QFTEEDLHFVLYGVTP
# chain 2: LPSIISNEKQEILGTVSWNLREMLAHAEETRKLMPVCVETKAIVSTIQRKYKGIKIQEGVVDYGARFYFYTSKTTVASLINTLNDLNETLVTMPLGYVTHGLNLEEAARYMRSLKVPATVSVSSPDAVTAYNGYLTSS
# Variants of: B1
# Assay: proteomic peptide phage display deep mutational scan (ProP-PD DMS): M13 P8 16-mer library selected against immobilised GST-tagged bait for four days (rounds), NGS of the eluted pools per day and pseudo-replica
# Details: with MDM2 SWIB (MDM2 SWIB/MDM2 domain, residues 17-125); bait immobilised on MaxiSorp plates (10 µg), library pre-cleared on GST, 2 h binding at 4 °C, five washes; one round per day, days 1-4; value from days 2 and 3; keep out of graded; scale: average fractional NGS count over selection days 2 and 3
row,Variant,screen value
1,chain 1 R6F,0.000483
2,chain 1 R6T,4.17e-05
3,chain 1 R6V,0.000461
4,chain 1 R6L,0.000264
5,chain 1 R6M,0.000232
6,chain 1 R6K,0.000243
7,chain 1 R6Y,0.000693
8,chain 1 R6E,6.31e-05
9,chain 1 D5H,6.55e-05
10,chain 1 D5M,0.000189
11,chain 1 D5V,0.000143
12,chain 1 D5F,3.53e-05
13,chain 1 D5T,0.000201
14,chain 1 D5Y,8.89e-05
15,chain 1 D5A,0.000323
16,chain 1 D5L,0.000477
17,chain 1 D5I,1.66e-05
18,chain 1 D5S,0.00089
19,chain 1 D5W,0.000664
20,chain 1 D5G,0.00021
21,chain 1 D5K,1.66e-05
22,chain 1 D5Q,2.45e-05

row,Variant,screen value
1,chain 1 T14A,2.89e-05
2,chain 1 T14S,0.000516
3,chain 1 T14D,9.35e-05
4,chain 1 T14I,3.81e-05
5,chain 1 T14Y,0.000108
6,chain 1 T14V,1.9e-05
7,chain 1 T14Q,3.86e-05
8,chain 1 T14N,0.000664
9,chain 1 T14M,0.00063
10,chain 1 T14W,0.000103
11,chain 1 T14H,4.28e-05
12,chain 1 T14G,5.64e-05
13,chain 1 T14E,0.000268
14,chain 1 F8W,0.000346
15,chain 1 F8Y,1.9e-05
16,chain 1 F8P,7.93e-05
17,chain 1 F8R,0
18,chain 1 F8N,0.000113
19,chain 1 F8K,0
20,chain 1 F8M,0.000128
21,chain 1 F8A,0.00012
22,chain 1 W12D,0

row,Variant,screen value
1,chain 1 W12N,0
2,chain 1 W12T,9.54e-05
3,chain 1 T10A,0.000165
4,chain 1 T10S,0.000471
5,chain 1 T10W,0.000295
6,chain 1 T10I,0.000209
7,chain 1 T10M,0.00046
8,chain 1 T10F,0.000114
9,chain 1 T10Q,0.000116
10,chain 1 T10H,0.000113
11,chain 1 T10L,6.08e-05
12,chain 1 T10Y,0.000166
13,chain 1 T10D,1.9e-05
14,chain 1 F16G,0
15,chain 1 F16E,0
16,chain 1 F16A,0
17,chain 1 F16W,1.6e-05
18,chain 1 F16I,5.77e-05
19,chain 1 F16Y,0
20,chain 1 F16S,0.000197
21,chain 1 V11M,0.000226
22,chain 1 V11H,0.0015

row,Variant,screen value
1,chain 1 V11A,0
2,chain 1 V11T,0
3,chain 1 V11I,0.00157
4,chain 1 V11Y,0.000214
5,chain 1 V11Q,0.00061
6,chain 1 V11E,0
7,chain 1 V11F,0.000216
8,chain 1 V11W,0.00167
9,chain 1 V11L,0.000339
10,chain 1 V11N,0
11,chain 1 S7P,2.82e-05
12,chain 1 S7W,0.000517
13,chain 1 S7T,6.52e-05
14,chain 1 S7F,3.36e-05
15,chain 1 S7K,6.18e-05
16,chain 1 S7L,0.000105
17,chain 1 S7Q,0.000194
18,chain 1 Q9F,5.33e-05
19,chain 1 Q9P,7.92e-05
20,chain 1 Q9L,0.00104
21,chain 1 Q9T,4.79e-05
22,chain 1 Q9N,0

row,Variant,screen value
1,chain 1 Q9M,0.000681
2,chain 1 Q9S,8.1e-05
3,chain 1 Q9Y,0.000186
4,chain 1 Q9A,0.000111
5,chain 1 Q9I,0.000133
6,chain 1 Q9W,0.000575
7,chain 1 Q9G,0.000111
8,chain 1 Q9D,0
9,chain 1 Q9E,8.49e-05
10,chain 1 A13W,0.000391
11,chain 1 A13I,0.000104
12,chain 1 A13L,9.44e-05
13,chain 1 A13N,0.000173
14,chain 1 A13V,4.31e-05
15,chain 1 A13R,5.94e-05
16,chain 1 A13S,0.000227
17,chain 1 A13P,0
18,chain 1 A13M,0.000146
19,chain 1 A13D,1.83e-05
20,chain 1 A13H,0.000327
21,chain 1 A13G,0

# Variants of: B2
# Assay: not given
# Details: with NSP3 UBl1 (ORF1ab Nsp3a Ub1, residues 819-925); bait immobilised on MaxiSorp plates (10 µg), library pre-cleared on GST, 2 h binding at 4 °C, five washes; one round per day, days 1-4; value from days 2 and 3; keep out of graded; scale: average fractional NGS count over selection days 2 and 3
row,Variant,screen value
1,chain 1 L15W,0
2,chain 1 R11V,0
3,chain 1 R11P,0
4,chain 1 R11L,0
5,chain 1 S4M,0
6,chain 1 S4V,0
7,chain 1 L13F,0
8,chain 1 L13V,0
9,chain 1 L13M,0
10,chain 1 L13H,0
11,chain 1 L13R,0
12,chain 1 I9E,0
13,chain 1 I9A,0
14,chain 1 L10D,0
15,chain 1 A2S,0
16,chain 1 E8N,0
17,chain 1 E8P,0
18,chain 1 L5H,0
19,chain 1 L5N,0
20,chain 1 L5G,0

# Variants of: B3
# Assay: not given
# Details: with NSP3 SUD-M (ORF1ab Nsp3c SUD-M, residues 1356-1493); bait immobilised on MaxiSorp plates (10 µg), library pre-cleared on GST, 2 h binding at 4 °C, five washes; one round per day, days 1-4; value from days 2 and 3; keep out of graded; scale: average fractional NGS count over selection days 2 and 3
row,Variant,screen value
1,chain 1 V14D,3.47e-05
2,chain 1 V14Q,0
3,chain 1 V14Y,1.26e-05
4,chain 1 V14N,3.28e-05
5,chain 1 V14E,3.19e-05
6,chain 1 F2Y,0
7,chain 1 H8P,2.01e-05
8,chain 1 H8S,2.39e-05
9,chain 1 E5R,0
10,chain 1 E5S,0
11,chain 1 P16W,2.83e-05
12,chain 1 F9D,0
13,chain 1 T3I,0
14,chain 1 T3Q,0
15,chain 1 Y12F,1.23e-05
16,chain 1 Y12P,0
17,chain 1 L11D,0
18,chain 1 L11T,0
19,chain 1 L11E,0

row,Variant,screen value
1,chain 1 L11M,0
2,chain 1 L11G,0
3,chain 1 L11A,0
4,chain 1 L11N,0
5,chain 1 T15R,0
6,chain 1 T15M,0
7,chain 1 T15F,0
8,chain 1 L7I,1.23e-05
9,chain 1 L7G,0
10,chain 1 L7K,0
11,chain 1 E4D,2.34e-05
12,chain 1 E4N,0
13,chain 1 E4T,1.11e-05
14,chain 1 E4F,1.23e-05
15,chain 1 V10E,0
16,chain 1 V10H,0
17,chain 1 V10K,0
18,chain 1 V10D,0
19,chain 1 V10N,0
